Residue numbers refer to the chain shown, from its start. Names may count otherwise. “And” between values parts separate entries of the source, which are not always exact repeats. Equal entries are not always repeated. One block for each molecule: values may come before it.
B1: PNGaseF-deglycosylated CUB7,8 (domain or fragment, rat, UniProt O70244 1165-1389, looked up)
chain: CGGNLTTPTGVLTSPNYPMPYYHSSECYWRLEASHGSPFELEFQDFHLEHHPSCSLDYLAVFDGPTTNSRLIDKLCGDTTPAPIRSNKDVVLLKLRTDAGQQGRGFEINFRQRCDNVVIVNKTSGILESINYPNPYDKNQRCNWTIQATTGNTVNYTFLGFDVESYMNCSTDYVELYDGPQWMGRYCGNNMPPPGATTGSQLHVLFHTDGINSGEKGFKMQWFTH
modifications: N-glycans removed with PNGaseF
notes: cubilin, rat, CUB7 (1165–1277) and CUB8 (1278–1389) of full length cubilin UniProtKB O70244; also called CUB7,8 after PNGaseF treatment (+); His tagged CUB7,8 domain; not shown: His6, C-terminal, kept
B2: CUB7,8-N1285P, not treated with PNGaseF (domain or fragment, rat, UniProt O70244 1165-1389, looked up)
chain: B1 chain with N121P
modifications: N-glycans as made in 293F cells (N1168, N1303, N1319 by MS, Table 2)
notes: also called CUB7,8 N1285P mutant; source: 293F cells, purified as the other cubilin proteins (Ni-NTA Superflow, gel filtration)
B3: rat serum albumin (RSA) (natural protein, UniProt P02770 25-608, looked up)
chain: EAHKSEIAHRFKDLGEQHFKGLVLIAFSQYLQKCPYEEHIKLVQEVTDFAKTCVADENAENCDKSIHTLFGDKLCAIPKLRDNYGELADCCAKQEPERNECFLQHKDDNPNLPPFQRPEAEAMCTSFQENPTSFLGHYLHEVARRHPYFYAPELLYYAEKYNEVLTQCCTESDKAACLTPKLDAVKEKALVAAVRQRMKCSSMQRFGERAFKAWAVARMSQRFPNAEFAEITKLATDVTKINKECCHGDLLECADDRAELAKYMCENQATISSKLQACCDKPVLQKSQCLAEIEHDNIPADLPSIAADFVEDKEVCKNYAEAKDVFLGTFLYEYSRRHPDYSVSLLLRLAKKYEATLEKCCAEGDPPACYGTVLAEFQPLVEEPKNLVKTNCELYEKLGEYGFQNAVLVRYTQKAPQVSTPTLVEAARNLGRVGTKCCTLPEAQRLPCVEDYLSAILNRLCVLHEKTPVSEKVTKCCSGSLVERRPCFSALTVDETYVPKEFKAETFTFHSDICTLPDKEKQIKKQTALAELVKHKPKATEDQLKTVMGDFAQFVDKCCKAADKDNCFATEGPNLVARSKEALA
modifications: in MST: Texas Red-X succinimidyl ester or Oregon Green 488-X succinimidyl ester conjugate, dye:protein molar ratio 1:1
notes: serum albumin, rat, UniprotKB P02770; Labelled with dye in MST; also called rat albumin; source: bought: Sigma
B4: CUB6–8 (cubilin 6–8 domain), glycosylated, not treated with PNGaseF (domain or fragment)
chain: CLYDYTDNFGMLSSPNFPNNYPSNWECIYRITVGLNQQIALHFTDFTLEDYFGSQCVDFVEIRDGGYETSPLVGIYCGSVLPPTIISHSNKLWLKFKSDAALTAKGFSAYWDGSSTGCGGNLTTPTGVLTSPNYPMPYYHSSECYWRLEASHGSPFELEFQDFHLEHHPSCSLDYLAVFDGPTTNSRLIDKLCGDTTPAPIRSNKDVVLLKLRTDAGQQGRGFEINFRQRCDNVVIVNKTSGILESINYPNPYDKNQRCNWTIQATTGNTVNYTFLGFDVESYMNCSTDYVELYDGPQWMGRYCGNNMPPPGATTGSQLHVLFHTDGINSGEKGFKMQWFTHG
modifications: N-glycans as made in 293F cells

Assays:
[1] = biological target: RSA 1 mM methylglyoxal (RSA1MGO) (rat) (UniProt P02770); assay: MST; Monolith NT.115, standard capillaries, 25 °C, 67 mM NaPO4, 150 mM NaCl, 0.05% Tween 20, pH 7.4 + 1 mM CaCl2; albumin labelled with a fluorescent dye (1:1), cubilin domain unlabelled
[2] = biological target: RSA 20 mM glucose (RSA20G) (rat) (UniProt P02770); assay: as above
[3] = biological target: RSA 200 mM glucose (RSA200G) (rat) (UniProt P02770); assay: as above
[4] = biological target: RSA 5 mM methylglyoxal (RSA5MGO) (rat) (UniProt P02770); assay: as above
[5] = biological target: RSA 500 mM glucose (RSA500G) (rat) (UniProt P02770); assay: as above
rat serum albumin (RSA) [6] = biological target: B3; assay: as above
[7] = biological target: Albumin (Rattus norvegicus) (UniProt P02770); conditions: cited from earlier work
rat serum albumin (RSA) [8] = biological target: B3; assay: MST; as a1 but at pH 6.0; albumin labelled
rat serum albumin (RSA) [9] = biological target: B3; assay: MST; as a1 but at pH 5.0 (buffer not told); albumin labelled
rabbit albumin = biological target: T1, rabbit albumin (rabbit, UniProt P49065 25-608, fluorescent dye conjugate for MST (Texas Red-X or Oregon Green 488-X succinimidyl ester)); assay: MST; Monolith NT.115, standard capillaries, 25 °C, 67 mM NaPO4, 150 mM NaCl, 0.05% Tween 20, pH 7.4 + 1 mM CaCl2; albumin labelled with a fluorescent dye (1:1), cubilin domain unlabelled; conditions: both partners purified
T1 construct: albumin, rabbit

human albumin = biological target: T2, human albumin (human, UniProt P02768 25-609, fluorescent dye conjugate for MST (Texas Red-X or Oregon Green 488-X succinimidyl ester)); assay: as above; conditions: both partners purified
T2 construct: albumin, human

bovine albumin = biological target: T3, bovine albumin (bovine, UniProt P02769 25-607, fluorescent dye conjugate for MST (Texas Red-X or Oregon Green 488-X succinimidyl ester)); assay: as above; conditions: both partners purified
T3 construct: albumin, bovine

[10] = biological target: the molecule itself; assay: SEC-MALS; data not shown; CUB7,8N1285P
[11] = biological target: the molecule itself; assay: SEC-MALS; Agilent Infinity II HPLC with Wyatt DAWN HELEOS II and Optilab T-rEX, 25 °C, running buffer with 2% v/v glycerol; cubilin domains not treated with any glycosidase

T3 sequence (P02769 25-607): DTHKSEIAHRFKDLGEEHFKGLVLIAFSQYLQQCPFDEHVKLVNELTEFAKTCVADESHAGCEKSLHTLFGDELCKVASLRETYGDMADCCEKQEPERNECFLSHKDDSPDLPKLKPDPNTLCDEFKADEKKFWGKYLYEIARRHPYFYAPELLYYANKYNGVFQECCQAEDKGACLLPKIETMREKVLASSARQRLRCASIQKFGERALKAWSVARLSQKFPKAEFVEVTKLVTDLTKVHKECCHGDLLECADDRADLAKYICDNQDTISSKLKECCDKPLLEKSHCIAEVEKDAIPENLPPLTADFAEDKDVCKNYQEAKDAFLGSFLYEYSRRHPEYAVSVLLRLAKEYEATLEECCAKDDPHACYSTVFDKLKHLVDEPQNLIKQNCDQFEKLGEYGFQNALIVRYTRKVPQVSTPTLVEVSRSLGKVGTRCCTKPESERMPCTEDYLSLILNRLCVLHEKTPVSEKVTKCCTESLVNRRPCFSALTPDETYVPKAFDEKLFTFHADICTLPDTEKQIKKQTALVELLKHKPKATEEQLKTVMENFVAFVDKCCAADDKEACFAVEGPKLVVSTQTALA
T1 sequence (P49065 25-608): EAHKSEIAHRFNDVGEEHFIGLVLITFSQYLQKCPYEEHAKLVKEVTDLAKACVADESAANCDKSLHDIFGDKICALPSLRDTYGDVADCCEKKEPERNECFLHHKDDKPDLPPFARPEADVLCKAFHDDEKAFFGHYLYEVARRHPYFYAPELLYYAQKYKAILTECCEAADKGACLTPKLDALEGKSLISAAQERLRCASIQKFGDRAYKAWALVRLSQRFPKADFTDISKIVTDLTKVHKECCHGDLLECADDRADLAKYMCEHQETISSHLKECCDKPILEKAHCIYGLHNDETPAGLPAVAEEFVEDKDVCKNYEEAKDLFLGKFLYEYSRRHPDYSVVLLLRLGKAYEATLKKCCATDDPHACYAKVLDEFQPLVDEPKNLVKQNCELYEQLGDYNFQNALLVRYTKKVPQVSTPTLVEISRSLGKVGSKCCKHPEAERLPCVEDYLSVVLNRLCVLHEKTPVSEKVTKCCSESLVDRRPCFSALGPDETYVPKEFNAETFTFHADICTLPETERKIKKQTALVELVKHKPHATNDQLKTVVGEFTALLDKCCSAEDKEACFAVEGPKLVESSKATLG
T2 sequence (P02768 25-609): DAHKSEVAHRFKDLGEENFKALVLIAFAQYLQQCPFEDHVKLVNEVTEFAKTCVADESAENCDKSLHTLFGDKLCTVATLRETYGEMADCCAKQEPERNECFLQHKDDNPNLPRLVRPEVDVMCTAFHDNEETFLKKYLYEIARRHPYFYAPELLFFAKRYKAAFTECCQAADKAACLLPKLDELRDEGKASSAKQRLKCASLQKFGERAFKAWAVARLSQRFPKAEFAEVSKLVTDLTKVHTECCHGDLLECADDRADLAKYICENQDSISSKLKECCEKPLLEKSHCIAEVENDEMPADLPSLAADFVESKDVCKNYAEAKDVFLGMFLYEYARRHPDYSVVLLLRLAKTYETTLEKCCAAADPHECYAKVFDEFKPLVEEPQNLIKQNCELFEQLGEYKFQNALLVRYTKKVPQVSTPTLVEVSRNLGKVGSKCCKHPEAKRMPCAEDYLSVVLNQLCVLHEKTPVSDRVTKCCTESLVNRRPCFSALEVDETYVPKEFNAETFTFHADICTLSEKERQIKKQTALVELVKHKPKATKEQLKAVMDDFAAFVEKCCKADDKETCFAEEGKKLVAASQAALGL

Kd [1]: 28 µM
Kd [2]: 2000 µM
Kd [3]: 9.4 µM
Kd [4]: > 100 µM
Kd [5]: > 100 µM
Kd (rat serum albumin (RSA) [6]): 500 to 1000 µM
Kd (rat serum albumin (RSA) [6]; record 2): 0.5 to 1 µM and 1 µM
Molecule: PNGaseF-deglycosylated CUB6–8 (domain or fragment)

Kd (rat serum albumin (RSA) [6]): > 100 µM
Molecule: CUB7,8 (cubilin 7,8 domain), glycosylated, not treated with PNGaseF (from UniProt O70244 1165-1389) (domain or fragment)

Molecule: Cubilin (from UniProt O70244)
Kd [7]: 0.63 µM

Molecule: B1
Kd (rat serum albumin (RSA) [8]): 1700 µM
Kd (rat serum albumin (RSA) [9]): 1400 µM
Kd [1]: 35 µM
Kd [2]: 2500 µM
Kd [3]: 25.6 µM
Kd [4]: > 100 µM
Kd [5]: > 100 µM
Kd (rabbit albumin): 0.9 to 1.4 µM
Kd (human albumin): 0.95 to 1.5 µM
Kd (bovine albumin): > 100 µM
Kd (rat serum albumin (RSA) [6]): 0.5 to 1.2 µM
Kd (rat serum albumin (RSA) [6]; record 2): 500 to 1000 µM

Molecule: B2
stoichiometry N [10]: 2

Molecule: B3
stoichiometry N [11]: 2

Molecule: B4
Kd (rat serum albumin (RSA) [6]; both partners purified): > 100 µM

— article PMC9485058, “Glycosylation of a key cubilin Asn residue results in reduced binding to albumin” (The Journal of Biological Chemistry, 2022)
